Measurements reported in article PMC5025857, “Redox-dependent Regulation of Gluconeogenesis by a Novel Mechanism Mediated by a Peroxidatic Cysteine of Peroxiredoxin” (Scientific Reports, 2016).
Positions count from the first letter of the chain named. One block for each binder: values may come before it.

Target: T1, HA-tagged Pyk1 (HA-Pyk1) (S. cerevisiae, UniProt P00549 1-500)
T1 construct: Pyk1 (Cdc19), pyruvate kinase of S. cerevisiae; also called pRS313-HA-PYK1; source: S. cerevisiae (pyk1∆ tsa1/2∆ or pyk1∆ cells) carrying pRS313-HA-PYK1, in lysate (whole cell extract)
T1 sequence (looked up): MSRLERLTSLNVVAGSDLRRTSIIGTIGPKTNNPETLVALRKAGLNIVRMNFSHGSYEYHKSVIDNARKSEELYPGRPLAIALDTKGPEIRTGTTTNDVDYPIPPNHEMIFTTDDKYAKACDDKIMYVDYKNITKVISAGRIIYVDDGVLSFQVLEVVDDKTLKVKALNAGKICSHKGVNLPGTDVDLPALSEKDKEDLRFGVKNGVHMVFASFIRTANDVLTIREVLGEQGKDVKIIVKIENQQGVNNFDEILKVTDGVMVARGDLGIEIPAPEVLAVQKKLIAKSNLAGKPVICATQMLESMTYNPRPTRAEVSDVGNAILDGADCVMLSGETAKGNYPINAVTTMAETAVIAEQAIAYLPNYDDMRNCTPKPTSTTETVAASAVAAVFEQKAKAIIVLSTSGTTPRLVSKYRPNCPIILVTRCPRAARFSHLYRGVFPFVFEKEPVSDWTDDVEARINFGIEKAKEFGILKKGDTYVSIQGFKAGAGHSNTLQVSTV
Assay: co-IP; HA-Pyk1 precipitated with anti-HA antibody beads from yeast whole cell extract (400 μg; IP buffer: 100 mM MES pH 7.0, 200 mM KCl, 15 mM MgCl2, 5% glycerol, 0.15% NP-40, 50 mM NEM; 4 °C, 3 h); immunoblot with anti-Tsa1, anti-Pyk1 and anti-Prx-SO2/SO3; cells from glucose (SDM) or ethanol (SEM -Trp) medium, exponential, diauxic shift or early stationary phase, with or without 1, 3 or 10 mM H2O2
Details: partners not purified

fold decrease of Pyk1-bound Tsa1 against wild-type Tsa1 (ethanol medium): ~3 fold
B1: Tsa1^C48T (enzyme, S. cerevisiae, UniProt P34760 1-196, looked up)
chain: MVAQVQKQAPTFKKTAVVDGVFDEVSLDKYKGKYVVLAFIPLAFTFVTPTEIIAFSEAAKKFEEQGAQVLFASTDSEYSLLAWTNIPRKEGGLGPINIPLLADTNHSLSRDYGVLIEEEGVALRGLFIIDPKGVIRHITINDLPVGRNVDEALRLVEAFQWTDKNGTVLPCNWTPGAATIKPTVEDSKEYFEAANK
notes: Tsa1 of S. cerevisiae with the peroxidatic cysteine Cys48 mutated to Thr; source: S. cerevisiae pyk1∆ tsa1/2∆ cells carrying an expression vector (pRS315), in lysate

stoichiometry N: 8 molecules of Tsa1^C171T for each tetramer of Pyk1
B2: Tsa1^C171T (enzyme, S. cerevisiae, UniProt P34760 1-196, looked up)
chain: B1 chain with T48C, C171T
notes: Tsa1 of S. cerevisiae with the resolving cysteine Cys171 mutated to Thr; source: S. cerevisiae tsa1/2Δ cells carrying an expression vector (pRS315), in lysate
